Target: HCMV glycoprotein gO (virion, strain TB40) (human cytomegalovirus strain TB40 (endogenous in virions))

## recombinant human PDGFR-α-Fc fusion protein (from UniProt P16234)
  infection of HFF with wt TB40-luc virus pre-incubated with PDGFR-α-Fc (one hour at 4°C; luciferase assay), residual infection; blocks gH/gL/gO of virions with PDGFR-α on HFF: 0.5%

From publication PMC5389851
